From patent US20210147523A1 (TEIJIN PHARMA, published 2021)

How the values were obtained:
Test in all cases: flow cytometry
human SPNS2 I129A mutant = target: T1, human SPNS2 I129A mutant (human, UniProt Q8IVW8 1-549)
T1 sequence: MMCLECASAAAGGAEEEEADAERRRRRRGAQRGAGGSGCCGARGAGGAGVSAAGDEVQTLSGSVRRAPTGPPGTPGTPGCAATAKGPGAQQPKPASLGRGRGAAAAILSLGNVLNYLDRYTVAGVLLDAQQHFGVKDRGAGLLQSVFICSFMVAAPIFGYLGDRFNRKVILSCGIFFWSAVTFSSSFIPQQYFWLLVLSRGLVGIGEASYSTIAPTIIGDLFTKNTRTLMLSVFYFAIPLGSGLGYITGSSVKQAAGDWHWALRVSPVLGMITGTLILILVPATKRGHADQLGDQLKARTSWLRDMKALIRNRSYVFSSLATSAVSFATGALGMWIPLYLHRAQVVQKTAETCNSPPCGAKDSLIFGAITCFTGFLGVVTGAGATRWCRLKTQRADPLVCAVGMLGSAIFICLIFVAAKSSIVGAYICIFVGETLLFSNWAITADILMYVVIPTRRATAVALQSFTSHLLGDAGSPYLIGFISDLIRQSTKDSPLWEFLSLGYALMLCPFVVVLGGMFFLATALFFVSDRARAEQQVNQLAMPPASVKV

human SPNS2 Q131A mutant = target: T2, human SPNS2 Q131A mutant (human, UniProt Q8IVW8 1-549)
T2 sequence: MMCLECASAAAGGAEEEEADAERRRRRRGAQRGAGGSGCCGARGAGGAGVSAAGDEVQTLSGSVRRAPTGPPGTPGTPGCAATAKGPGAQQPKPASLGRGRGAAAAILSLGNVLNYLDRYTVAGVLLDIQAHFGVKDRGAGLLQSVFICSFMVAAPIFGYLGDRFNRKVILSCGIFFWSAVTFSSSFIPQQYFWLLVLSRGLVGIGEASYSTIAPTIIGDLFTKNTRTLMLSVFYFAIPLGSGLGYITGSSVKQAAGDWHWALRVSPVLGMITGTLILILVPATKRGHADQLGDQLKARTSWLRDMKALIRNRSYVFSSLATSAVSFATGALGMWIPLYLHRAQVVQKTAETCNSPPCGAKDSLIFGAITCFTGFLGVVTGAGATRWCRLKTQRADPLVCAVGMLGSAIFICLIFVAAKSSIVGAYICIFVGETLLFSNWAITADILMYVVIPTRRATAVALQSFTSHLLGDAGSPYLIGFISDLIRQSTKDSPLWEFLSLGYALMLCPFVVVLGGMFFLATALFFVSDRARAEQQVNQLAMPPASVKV

human SPNS2 Q190A mutant = target: T3, human SPNS2 Q190A mutant (human, UniProt Q8IVW8 1-549)
T3 sequence: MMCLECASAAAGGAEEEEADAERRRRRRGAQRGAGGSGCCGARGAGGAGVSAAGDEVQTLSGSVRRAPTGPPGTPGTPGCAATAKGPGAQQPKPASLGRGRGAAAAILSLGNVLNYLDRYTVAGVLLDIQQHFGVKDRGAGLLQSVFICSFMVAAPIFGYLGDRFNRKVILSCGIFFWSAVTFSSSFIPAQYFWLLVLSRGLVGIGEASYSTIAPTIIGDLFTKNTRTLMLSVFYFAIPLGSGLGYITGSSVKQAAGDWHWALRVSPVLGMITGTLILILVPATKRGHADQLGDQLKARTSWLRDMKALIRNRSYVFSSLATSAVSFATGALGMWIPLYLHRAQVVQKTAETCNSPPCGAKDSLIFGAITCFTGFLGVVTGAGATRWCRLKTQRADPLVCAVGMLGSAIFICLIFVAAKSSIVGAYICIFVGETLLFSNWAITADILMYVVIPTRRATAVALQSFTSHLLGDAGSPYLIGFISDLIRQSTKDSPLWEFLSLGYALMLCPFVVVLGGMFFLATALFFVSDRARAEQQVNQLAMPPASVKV

human SPNS2 D128A mutant = target: T4, human SPNS2 D128A mutant (human, UniProt Q8IVW8 1-549)
T4 sequence: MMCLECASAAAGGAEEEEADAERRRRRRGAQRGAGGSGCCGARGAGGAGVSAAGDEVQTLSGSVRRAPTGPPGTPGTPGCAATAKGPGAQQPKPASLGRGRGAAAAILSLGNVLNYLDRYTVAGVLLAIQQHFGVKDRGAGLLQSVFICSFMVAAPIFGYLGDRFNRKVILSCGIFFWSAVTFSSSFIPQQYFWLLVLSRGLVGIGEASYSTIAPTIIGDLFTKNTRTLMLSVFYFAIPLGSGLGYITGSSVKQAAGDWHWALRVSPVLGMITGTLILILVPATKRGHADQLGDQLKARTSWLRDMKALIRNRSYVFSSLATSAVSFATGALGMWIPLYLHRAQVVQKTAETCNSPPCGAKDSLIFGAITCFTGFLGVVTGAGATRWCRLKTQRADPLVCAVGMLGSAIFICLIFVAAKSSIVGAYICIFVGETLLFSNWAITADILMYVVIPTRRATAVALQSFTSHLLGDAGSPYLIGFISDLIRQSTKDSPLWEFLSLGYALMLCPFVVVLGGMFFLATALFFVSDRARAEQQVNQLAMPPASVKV

human SPNS2 G134A mutant = target: T5, human SPNS2 G134A mutant (human, UniProt Q8IVW8 1-549)
T5 sequence: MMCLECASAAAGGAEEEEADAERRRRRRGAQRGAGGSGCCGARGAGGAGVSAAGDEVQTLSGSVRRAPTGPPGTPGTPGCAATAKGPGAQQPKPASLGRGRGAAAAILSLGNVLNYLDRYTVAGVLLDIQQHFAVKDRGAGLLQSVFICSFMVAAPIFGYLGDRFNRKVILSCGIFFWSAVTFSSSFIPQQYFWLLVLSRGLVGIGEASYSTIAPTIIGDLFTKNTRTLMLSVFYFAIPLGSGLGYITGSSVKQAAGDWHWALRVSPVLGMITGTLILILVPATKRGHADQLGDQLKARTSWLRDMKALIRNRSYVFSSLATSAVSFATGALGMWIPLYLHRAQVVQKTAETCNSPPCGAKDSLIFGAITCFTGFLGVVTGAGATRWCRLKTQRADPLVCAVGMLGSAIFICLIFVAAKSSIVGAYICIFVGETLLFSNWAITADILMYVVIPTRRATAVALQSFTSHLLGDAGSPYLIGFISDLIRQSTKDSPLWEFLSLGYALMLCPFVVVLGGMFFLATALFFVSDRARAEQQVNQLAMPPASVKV

B1: 65-0810G (antibody, IgG2b, V domains shown)
VH: EVHLVESGGGLVQPGRSMKLSCTASGFTFNNYYMAWVRQAPTKGLEWVASISTGGGYTYYRDSVKGRFTISRDNTGNTLYLQMDSLRSEDTATYYCARCWELPYWGQGVMVTVSS
VL: QFVLTQPNSVSTNLGSTVKLSCRRSSGNIGNNYVNWYRQHEGRSPTTMIYRDDTRPDGVPNRFSGSIDRSSNSALLTINNVRPEDEAYYFCQSYSGSIYIFGGGTKLTVL
B1 was tested, and the “binding ratio vs native type” value (human SPNS2 I129A mutant) was < 0.5 ratio and the “binding ratio vs native type” value (human SPNS2 Q131A mutant) was < 0.5 ratio.

B2: 93-1310F (antibody, IgG2b, V domains shown)
VH: EVQLVETGGGLVQPGSSLKLSCATSGFTFSDTWMSWVRQAPGKGLEWVALIKDKNSNYEANYAESVKGRFTISRDDSKRRVYLQMFTLRDQDTATYYCTSHEDFYYYSSYYFDYWGHGVMVTVSS
VL: DIVLTQSPATLSVTPGESVSLSCRASQGISTSIHWYQQKSNGSPRLLIKYASQSISGIPSRFSGSGSGTDFTLRINRVESEDFSVYYCQQTYSLPLTFGSGTRLEIKR
In the case of B2, the “binding ratio vs native type” value (human SPNS2 Q190A mutant) is reported as < 0.5 ratio.

B3: 96-1403F (antibody, IgG2b, V domains shown)
VH: EVQLVETGGGLVRPGSSLKLSCATSGFTFSDTWMSWVRQAPGKGLEWVALIKDKNSNSEANYAESIKGRFTISRDDSKSRVYLQMNTLRDQDTATYYCTRHEDFYYYSGYYFDYWGQGVMVTVSS
VL: DIVLTQSPPTLSVTPGESVSLSCRASQGISTSIHWYQQRSNESPRLLIKYASQSIAGIPSRFSGSGSGTDFILSINRVESEDFSVYYCQQTYSLPLTFGPGTKLEVKR
B3 was tested, and the “binding ratio vs native type” value (human SPNS2 Q190A mutant) was < 0.5 ratio.

B4: 37-0511F (antibody, IgG2b, V domains shown)
VH: EVHLQQSGAALVRPRASVKLSCKVSGDSISRYYVHFVKQRPGQGLEWIGRIDPEDDTTKYSEKFKNRATLTADASSDTASLILSGLTSDDTATYFCSTLTGLDYWGQGVMVTVSS
VL: DIQMTQSPPVLSTSVGDRVTLRCKPSQNVHSKLDWYQQKHGEAPKLLIYYTHNLQTGIPSRFSGSGSGTDYTLTISSLQPEDVATYYCFQYYSGWTFGGGTKLEMKR
For B4, the “binding ratio vs native type” value (human SPNS2 D128A mutant) was < 0.5 ratio.

B5: 53-0707E (antibody, IgG2b, V domains shown)
VH: EVQLQQSGAELVRPRTSVKLSCKVSGDSITRYYVHFVKQRPGQGLEWIGRIDPEDDTTKYSEKFKKKATLTADASSNTAYLIFSGLTSEDTATYFCSTLTGLDYWGQGVMVTVSS
VL: DIQMTQSPPVLSTSVGDRVTLRCKASQNVHSKLDWYQQKHGEAPKLLIYYTHNLQTGIPSRFSGSGSGTDYTLTISSLQPEDVATYYCFQYYSGWTFGGGTKLEMKR
With B5 the “binding ratio vs native type” value (human SPNS2 D128A mutant) was < 0.5 ratio.

B6: 64-0807A (antibody, IgG2b, V domains shown)
VH: EVQVVESGGGLVQPGRSMKLSCAALGFTFRDYYMAWVRQTPTKGLEWVAAISTGGGNTYYRDSVKGRFTISRDNAKSTLYLQMDSLRSDDTATYYCARNPYGNYFDYWGQGVMVTVSS
VL: QFVLSQPNSVSTNLGSTVKLSCKRSTGNIGSNYVHWYQRHEGRSPTTLIYRDDKRPNGVPDRFSGSIDRSSNSALLTINNVQTEDEADYFCQSYSGGMYLFGGGTKLTVL
With B6 the “binding ratio vs native type” value (human SPNS2 Q131A mutant) was < 0.5 ratio and the “binding ratio vs native type” value (human SPNS2 G134A mutant) was < 0.5 ratio.
